Assay results as given in ChEMBL document CHEMBL1142160, “Overexpression and initial characterization of the chromosomal aminoglycoside 3'-O-phosphotransferase APH(3')-IIb from Pseudomonas aeruginosa” (2007).

Legend:
[1] = substrate: NC[C@H]1O[C@H](O[C@H]2[C@H](O)[C@@H](O)[C@H](N)C[C@@H]2N)[C@H](N)[C@@H](O)[C@@H]1O; test: (§1) Activity against Pseudomonas aeruginosa APH(3')-2b expressed in Escherichia coli BL21(DE3) assessed as phosphorylation
[2] = substrate: NC[C@H]1O[C@H](O[C@H]2[C@H](O[C@@H]3O[C@H](CO)[C@@H](O)[C@H]3O)[C@@H](O)[C@H](N)C[C@@H]2N)[C@H](N)[C@@H](O)[C@@H]1O; test: as §1
[3] = substrate: NC[C@@H]1O[C@@H](O[C@H]2[C@H](O)[C@@H](O[C@H]3O[C@H](CO)[C@@H](O)[C@H](N)[C@H]3O)[C@H](N)C[C@@H]2N)[C@@H](O)[C@H](O)[C@H]1O; test: as §1
[4] = substrate: NC[C@@H]1O[C@H](O[C@H]2[C@@H](O)[C@H](O[C@@H]3[C@@H](O)[C@H](N)C[C@H](N)[C@H]3O[C@H]3O[C@H](CN)[C@@H](O)[C@H](O)[C@H]3N)O[C@@H]2CO)[C@H](N)[C@@H](O)[C@@H]1O; test: as §1
[5] = substrate: NCC[C@H](O)C(=O)N[C@@H]1C[C@H](N)[C@@H](O[C@H]2O[C@H](CN)[C@@H](O)[C@H](O)[C@H]2O)[C@H](O)[C@H]1O[C@H]1O[C@H](CO)[C@@H](O)[C@H](N)[C@H]1O; test: as §1
[6] = substrate: NC[C@H]1O[C@H](O[C@H]2[C@H](O)[C@@H](O)[C@H](N)C[C@@H]2N)[C@H](N)[C@@H](O)[C@@H]1O; test: (§2) Ratio of kcat to km for PH(3')-2b activity; details: Pseudomonas aeruginosa
[7] = substrate: NC[C@H]1O[C@H](O[C@H]2[C@H](O[C@@H]3O[C@H](CO)[C@@H](O)[C@H]3O)[C@@H](O)[C@H](N)C[C@@H]2N)[C@H](N)[C@@H](O)[C@@H]1O; test: as §2; details: Pseudomonas aeruginosa
[8] = substrate: NC[C@@H]1O[C@@H](O[C@H]2[C@H](O)[C@@H](O[C@H]3O[C@H](CO)[C@@H](O)[C@H](N)[C@H]3O)[C@H](N)C[C@@H]2N)[C@@H](O)[C@H](O)[C@H]1O; test: as §2; details: Pseudomonas aeruginosa
[9] = substrate: NC[C@@H]1O[C@H](O[C@H]2[C@@H](O)[C@H](O[C@@H]3[C@@H](O)[C@H](N)C[C@H](N)[C@H]3O[C@H]3O[C@H](CN)[C@@H](O)[C@H](O)[C@H]3N)O[C@@H]2CO)[C@H](N)[C@@H](O)[C@@H]1O; test: as §2; details: Pseudomonas aeruginosa
[10] = substrate: NCC[C@H](O)C(=O)N[C@@H]1C[C@H](N)[C@@H](O[C@H]2O[C@H](CN)[C@@H](O)[C@H](O)[C@H]2O)[C@H](O)[C@H]1O[C@H]1O[C@H](CO)[C@@H](O)[C@H](N)[C@H]1O; test: as §2; details: Pseudomonas aeruginosa

B1: Aminoglycoside 3'-phosphotransferase type IIb (Pseudomonas aeruginosa (strain ATCC 15692 / PAO1 / 1C / PRS 101 / LMG12228)), Q9HWR2 (protein)
chain: MHDAATSMPPQAPSTWADYLAGYRWRGQGEGCSAATVHRLEAARRPTLFVKQEVLSAHAELPAEIARLRWLHGAGIDCPQVLNETQSDGRQWLLMSAVPGDTLSALAQRGELEPERLVRLVAAALRRLHDLDPAACPFDHRLERRLDTVRQRVEAGLVDEADFDDDHRGRSATELYRLLLDRRPAVEDLVVAHGDACLPNLLAEGRRFSGFIDCGRLGVADRHQDLALAARDIEAELGAAWAEAFLVEYGGDIDGERLAYFRLLDEFF
Km [1]: 10.3 µM | Km [2]: 10 µM | Km [3]: 3.1 µM | Km [4]: 17.5 µM | Km [5]: 440 µM | kcat/Km [6]: 170000 M⁻¹ s⁻¹ | kcat/Km [7]: 190000 M⁻¹ s⁻¹ | kcat/Km [8]: 360000 M⁻¹ s⁻¹ | kcat/Km [9]: 120000 M⁻¹ s⁻¹ | kcat/Km [10]: 400000 M⁻¹ s⁻¹
